Literature values, collected in publication PMC10218885.

How the values were obtained:
Assay in all cases: NMR
Tyr118 = Tyr118 (UniProt position 118, LSGDSYWVFVK)
Tyr42 = Tyr42 (UniProt position 42, GNILQYNAAEG)
Tyr76 = Tyr76 (UniProt position 76, DSPEFYGKFKE)
Tyr94 = Tyr94 (UniProt position 94, NTMFEYTFDYQ)
Tyr98 = Tyr98 (UniProt position 98, EYTFDYQMTPT)

Substance: Photoactive yellow protein (PYP) (Stated in the article as Halobacterium halobium; the PYP of the cited study is from Halorhodospira halophila (formerly Ectothiorhodospira halophila))
- pKa (Tyr118): 11.4–12.0
- pKa (Tyr42): > 13
- pKa (Tyr76): 10.2–10.3
- pKa (Tyr94): > 13
- pKa (Tyr98): 10.2–10.3
